The results in this text go back to US20210170043A1, “DC-SIGN ANTIBODY CONJUGATES COMPRISING STING AGONISTS” (NOVARTIS AG, priority 2018, published 2021).

In test [1] the target is T1, human DC-SIGN (Homo sapiens, UniProt Q9NNX6).
T1 construct: expressed in transfected cells
T1 sequence (Q9NNX6 1-404): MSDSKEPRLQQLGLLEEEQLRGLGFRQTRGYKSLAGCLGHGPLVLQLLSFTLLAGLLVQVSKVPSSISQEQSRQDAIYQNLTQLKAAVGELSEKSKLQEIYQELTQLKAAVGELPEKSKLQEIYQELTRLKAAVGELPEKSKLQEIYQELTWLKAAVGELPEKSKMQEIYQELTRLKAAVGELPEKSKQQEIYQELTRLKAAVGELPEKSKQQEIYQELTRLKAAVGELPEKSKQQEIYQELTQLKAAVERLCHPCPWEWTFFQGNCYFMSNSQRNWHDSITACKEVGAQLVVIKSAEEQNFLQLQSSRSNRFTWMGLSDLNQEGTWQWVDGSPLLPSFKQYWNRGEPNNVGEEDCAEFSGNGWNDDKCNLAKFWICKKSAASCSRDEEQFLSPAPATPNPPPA
Put plainly: FACS binding to CHO cells stably expressing human DC-SIGN. The conditions noted are these: FACS MFI, average. The procedure:
(§1) The affinity of various antibodies and ADCs to DC-SIGN and its species orthologues was determined using FACS. Purified IgGs were titrated to determine EC50 values for binding to cell surface expressed DC-SIGN.
(§2) For this purpose, human DC-SIGN expressing or cynomolgus monkey DC-SIGN expressing stable CHO cell lines or K562 expressing DC-SIGN or K562 expressing L-SIGN cell lines were checked for density and viability using VICELL (Beckman Coulter), and washed once with 4° C. PBS. Cells were stained with DAPI (0.5 ug/mL) diluted in PBS for 30 min on ice. Cells were diluted into 4° C. FACS buffer (PBS, 10 mM EDTA, 2% FBS). 125 μl of cells were seeded (10,000 cells/well) into 96-well v-bottom plates (Nunc cat#442587) and centrifuged for 4 min at 1500 rpm at 4° C. Supernatant was removed. Cells were incubated with a serial dilution of each anti-DC-SIGN antibody in FACS buffer at concentrations ranging across several logs with a top concentration no higher than 50 μg/mL for 60 minutes at 4° C. Following incubation, cells were spun down (1500 rpm, 4 min, 4° C.) and washed two times with FACS buffer. A fluorophore-conjugated anti-hFc gamma-AF-647 (Southern Biotechnology) detection antibody was added at 1:400 and samples were incubated for 1 h on ice in the dark. Following incubation, FACS buffer was added, and the cells were spun down (1500 rpm, 4 min, 4° C.) and washed two times with FACS buffer. After the final wash, cells were resuspended in Fixative Buffer (Biolegend, 420801) and 90 μl of FACS buffer followed by readout on the flow cytometry machine (BD LSRFortessa Cell Analyzer; Cat #647177). Geometric Mean fluorescence intensity (MFI) of live, single cells was calculated in Flowjo 10.4.2 and exported into Graphpad Prism7 for EC50 determination.
(In general: In flow cytometry, cells or beads pass a laser one at a time.)

In test [2] the test system is cynomolgus monkey DC-SIGN. Put plainly: FACS binding to CHO cells stably expressing cynomolgus monkey DC-SIGN. The following applies: FACS MFI, average. The procedure:
as §1, §2
In a similar experiment the antibodies were tested for cross-reactivity using engineered isogenic matched cell line.

The target of test [3] is T1, human DC-SIGN. Put plainly: FACS binding to K562 cells expressing human DC-SIGN. The following applies: FACS MFI. As for the experimental part: as §1, §2
In test [4] the target is T2, DC-SIGN Carbohydrate Recognition Domain (CRD) (Homo sapiens, UniProt Q9NNX6).
T2 construct: The DC-SIGN CRD was captured via the His tag; AviTag (C)
T2 sequence (Q9NNX6 with tags, fused parts or gaps): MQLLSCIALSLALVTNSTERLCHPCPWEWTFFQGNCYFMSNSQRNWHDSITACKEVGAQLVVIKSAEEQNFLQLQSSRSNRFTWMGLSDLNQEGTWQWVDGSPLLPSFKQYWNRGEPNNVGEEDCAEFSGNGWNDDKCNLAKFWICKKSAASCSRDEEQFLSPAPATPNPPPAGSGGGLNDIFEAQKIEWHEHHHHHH
The test can be described thus: Biacore affinity to DC-SIGN Carbohydrate Recognition Domain. The class given is binding. The following applies: 25° C. The procedure:
The affinity of various antibodies to DC-SIGN Carbohydrate Recognition Domain (CRD) was determined using Biacore. Purified IgGs for the parental antibodies were titrated to determine Kd values for binding to purified antigen domain by two methods described below.
In method 1 DC-SIGN was used as the ligand (surface attached) and the antibody the analyte (injected at different concentrations). The DC-SIGN CRD was captured via the His tag on a CM5 chip that was prepared by immobilizing 12000RU NeutrAvidin followed by capturing ˜550RU of Tris-NTA biotin. Fresh DC-SIGN was used for each dose. Each cycle consisted of charging the surface with a 120s pulse of 5 mM NiCl2, capturing the same amount of DC-SIGN, injecting the antibody at the desired concentration, and stripping the Ni^2+ with pulses of 350 mM EDTA and 500 mM imidazole to remove all DC-SIGN. Antibodies were injected at concentrations between 250 and 31 nM for 180s and allowed to dissociate for 600s. The reverse orientation was used in method 2-antibody the ligand and DC-SIGN the analyte. A CM5 chip was first prepared with mouse anti-human IgG Fc and used to capture the antibodies. […] Kinetic parameters were calculated using the 8K analysis software.

Read-outs that look alike come from different tables or passages of the source. A value given as a limit tells only on which side of the number the result lay.

cynomolgus monkey DC-SIGN, sequence (as listed by the source): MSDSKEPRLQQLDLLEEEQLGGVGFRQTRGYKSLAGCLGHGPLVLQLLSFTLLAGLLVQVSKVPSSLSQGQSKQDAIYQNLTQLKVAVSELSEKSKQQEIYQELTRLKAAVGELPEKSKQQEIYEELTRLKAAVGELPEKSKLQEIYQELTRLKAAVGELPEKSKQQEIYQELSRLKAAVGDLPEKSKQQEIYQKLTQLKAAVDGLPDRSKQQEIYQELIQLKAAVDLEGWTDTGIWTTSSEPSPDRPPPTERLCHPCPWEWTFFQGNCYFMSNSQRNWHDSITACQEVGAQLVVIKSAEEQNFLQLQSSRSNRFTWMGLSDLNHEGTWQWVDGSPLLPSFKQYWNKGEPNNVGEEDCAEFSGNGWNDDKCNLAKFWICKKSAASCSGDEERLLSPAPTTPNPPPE

B1: 892D15: anti-DC-SIGN antibody; All antibodies except 892D15 and 942K11 bind human and cynomolgus monkey DC-SIGN similarly; headings print 952D15 (antibody)
heavy: QVTLRESGPALVKPTQTLTLTCTFSGFSPSTSGMSVSWIRQPPGKALEWLALIDWDDDKYFSTSLKTRLTISKDTSKNQVVLTMTNMDPVDTATYYCARAHSGSYFDYWGQGTLVTVSSASTKGPSVFPLAPSSKSTSGGTAALGCLVKDYFPCPVTVSWNSGALTSGVHTFPAVLQSSGLYSLSSVVTVPSSSLGTQTYICNVNHKPSNTKVDKRVEPKSCDKTHTCPPCPAPELLGGPSVFLFPPKPKDTLMISRTPEVTCVVVAVSHEDPEVKFNWYVDGVEVHNAKTKPREEQYNSTYRVVSVLTVLHQDWLNGKEYKCKVSNKALAAPIEKTISKAKGQPREPQVYTLPPSREEMTKNQVSLTCLVKGFYPCDIAVEWESNGQPENNYKTTPPVLDSDGSFFLYSKLTVDKSRWQQGNVFSCSVMHEALHNHYTQKSLSLSPGK
light: DIQMTQSPSTLSASVGDRVTITCRASQSISNWLAWYQQKPGKAPKLLIYKASSLESGVPSRFSGSGSGTEFTLTISSLQPDDFATYYCQQFNSYWTFGQGTKVEIKRTVAAPSVFIFPPSDEQLKSGTASVVCLLNNFYPREAKVQWKVDNALQSGNSQESVTEQDSKDSTYSLSSTLTLSKADYEKHKVYACEVTHQGLSSPVTKSFNRGEC
With B1, the “human DC-SIGN CHO EC50 (ug/mL) ave.” value with human DC-SIGN [1] is 0.15 µg/mL. Also, in test [2], the “cyno DC-SIGN CHO EC50 (ug/mL) ave.” value amounted to 15.69 µg/mL. Further, the “human DC-SIGN K562 EC50” value in the test with human DC-SIGN [3] was over 10 µg/mL. Moreover, the Kd came out at 0.111 µM in test [4] (method 1: DC-SIGN CRD captured on chip, antibody as analyte, read-out: high density DC-SIGN CRD on chip) and 47.6 µM in test [4] (method 2: antibody captured on chip, DC-SIGN CRD as analyte, read-out: Ab on chip).
